The results in this text go back to publication PMC7246905, “Exploring the Enzymatic and Antibacterial Activities of Novel Mycobacteriophage Lysin B Enzymes” (International Journal of Molecular Sciences, 2020).

What is called Vmax is the rate approached at saturating substrate. The kcat is the number of substrate molecules converted per active site and unit of time at saturation. The kcat/Km is the turnover number divided by the Michaelis constant.

Where two headings read alike, the source gives them in different places.

What all share (conditions): 20 mM Tris-HCl, 100 mM NaCl, 0.1% Triton X-100, pH 8, 37 °C
The test system of one data set is LysB-Obama12 (LysB-His6). Briefly: p-nitrophenol release at […] nm, Michaelis-Menten. The format is biochemical, Mycobacterium phage Obama12.
Substrate in data set [1]: CCCC(=O)Oc1ccc([N+](=O)[O-])cc1
Briefly: purified protein. It is filed as biochemical, Fromanvirus D29.

Substrate in data set [2]: CCCCCCCCCCCCCCCC(=O)Oc1ccc([N+](=O)[O-])cc1
Briefly: purified protein. The format is biochemical, Fromanvirus D29.

Substrate in data set [3]: CCCCCCCCCCCCCC(=O)Oc1ccc([N+](=O)[O-])cc1
Briefly: purified protein. It is filed as biochemical, Fromanvirus D29.

Substrate in data set [4]: CCCCCCCCCCCC(=O)Oc1ccc([N+](=O)[O-])cc1
Briefly: purified protein. It is filed as biochemical, Fromanvirus D29.

Substrate in data set [5]: CCCCCCCC(=O)Oc1ccc([N+](=O)[O-])cc1
Briefly: purified protein. The format is biochemical, Fromanvirus D29.

Substrate in data set [6]: CCCC(=O)Oc1ccc([N+](=O)[O-])cc1
Briefly: purified protein. The format is biochemical, Mycobacterium phage Saal.

Substrate in data set [7]: CCCCCCCCCCCCCCCC(=O)Oc1ccc([N+](=O)[O-])cc1
Briefly: purified protein. It is filed as biochemical, Mycobacterium phage Saal.

Substrate in data set [8]: CCCCCCCCCCCCCC(=O)Oc1ccc([N+](=O)[O-])cc1
Briefly: purified protein. It is filed as biochemical, Mycobacterium phage Saal.

Substrate in data set [9]: CCCCCCCCCCCC(=O)Oc1ccc([N+](=O)[O-])cc1
Briefly: purified protein. The format is biochemical, Mycobacterium phage Saal.

Substrate in data set [10]: CCCCCCCC(=O)Oc1ccc([N+](=O)[O-])cc1
Briefly: purified protein. It is filed as biochemical, Mycobacterium phage Saal.

Substrate in data set [11]: CCCC(=O)Oc1ccc([N+](=O)[O-])cc1
Briefly: purified protein. The format is biochemical, Mycobacterium phage Omega.

Substrate in data set [12]: CCCCCCCCCCCCCCCC(=O)Oc1ccc([N+](=O)[O-])cc1
Briefly: purified protein. The format is biochemical, Mycobacterium phage Omega.

Substrate in data set [13]: CCCCCCCCCCCCCC(=O)Oc1ccc([N+](=O)[O-])cc1
Briefly: purified protein. The format is biochemical, Mycobacterium phage Omega.

Substrate in data set [14]: CCCCCCCCCCCC(=O)Oc1ccc([N+](=O)[O-])cc1
Briefly: purified protein. The format is biochemical, Mycobacterium phage Omega.

Substrate in data set [15]: CCCCCCCC(=O)Oc1ccc([N+](=O)[O-])cc1
Briefly: purified protein. It is filed as biochemical, Mycobacterium phage Omega.

For the molecule `CCCCCCCCCCCCCCCC(=O)Oc1ccc([N+](=O)[O-])cc1` [p-nitrophenyl palmitate], the Km in the data set with LysB-Obama12 (LysB-His6) (read-out: pNPP (C16)) was 800 ± 22.1 µM.

For the molecule `CCCCCCCCCCCCCC(=O)Oc1ccc([N+](=O)[O-])cc1` [p-nitrophenyl myristate], the Km with LysB-Obama12 (LysB-His6) (read-out: pNPM (C14)) was 1270 ± 86.4 µM.

On to `CCCCCCCCCCCC(=O)Oc1ccc([N+](=O)[O-])cc1` [p-nitrophenyl laurate], for which, in the data set with LysB-Obama12 (LysB-His6) (read-out: pNPL (C12)), the Km stood at 3000 ± 20.1 µM.

For `CCCC(=O)Oc1ccc([N+](=O)[O-])cc1` [p-nitrophenyl butyrate], in the data set on LysB-Obama12 (LysB-His6) (read-out: pNPB (C4)), the Km turned out to be 1270 ± 60 µM.

Take `CCCCCCCC(=O)Oc1ccc([N+](=O)[O-])cc1` [p-nitrophenyl octanoate]: in the data set on LysB-Obama12 (LysB-His6) (read-out: pNPO (C8)), the Km amounted to 2670 ± 46.5 µM.

B1: LysB-D29 (LysB-His6) (Fromanvirus D29) (protein)
chain: MSKPWLFTVHGTGQPDPLGPGLPADTARDVLDIYRWQPIGNYPAAAFPMWPSVEKGVAELILQIELKLDADPYADFAMAGYSQGAIVVGQVLKHHILPPTGRLHRFLHRLKKVIFWGNPMRQKGFAHSDEWIHPVAAPDTLGILEDRLENLEQYGFEVRDYAHDGDMYASIKEDDLHEYEVAIGRIVMKASGFIGGRDSVVAQLIELGQRPITEGIALAGAIIDALTFFARSRMGDKWPHLYNRYPAVEFLRQI
As to B1, the Km was found to be 422.6 ± 29.4 µM in “purified protein [1]”; 37.7 ± 7.134 µM in “purified protein [2]”; 24.08 ± 0.505 µM in the data set “purified protein [3]”; 19.6 ± 3.094 µM in the data set “purified protein [4]”; 42.3 ± 0.445 µM in the data set “purified protein [5]”. In addition, the Vmax is 122 µmol/min/mg in the data set “purified protein [1]”; 2.73 µmol/min/mg in the data set “purified protein [2]”; 3 µmol/min/mg in “purified protein [3]”; 7.55 µmol/min/mg in “purified protein [4]”; 9.85 µmol/min/mg in “purified protein [5]”. Further, the kcat in “purified protein [1]” stood at 11.9 ± 0.187 s⁻¹; in the data set “purified protein [2]” it was 0.242 ± 0.0168 s⁻¹; in “purified protein [3]”, 0.294 ± 0.0159 s⁻¹; in the data set “purified protein [4]” it was 0.738 ± 0.026 s⁻¹; in the data set “purified protein [5]”, 0.961 ± 0.213 s⁻¹. Further, the kcat/Km in the data set “purified protein [1]” turned out to be 28300 ± 6130 M⁻¹ s⁻¹; in “purified protein [2]”, 6330 ± 783 M⁻¹ s⁻¹; in the data set “purified protein [3]” it was 12200 ± 512 M⁻¹ s⁻¹; in “purified protein [4]”, 37700 ± 6030 M⁻¹ s⁻¹; in “purified protein [5]”, 22700 ± 723 M⁻¹ s⁻¹.

B2: LysB-Saal (LysB-His6) (Mycobacterium phage Saal) (protein)
chain: MRIDGQYVGLGLGDSSDEIRKIKAFMRRKFASYAGDLADTPLYDEAMTAAVAEMQARYSAAGQLRAGLYIPGIVGAETKYVMGYLPRPVVDTRPVLITVCGTGVPWWIGPDADTARAVEDKYLWQPIGYPAAPFPMGKSIAAAITETHNQANRWRERIETHGAALAGYSQGAVVVSELWMNHIAPEDGSLHWMKPHIEKAVTWGNPNRELGHVWADHGGSPRAPSNTQGVSSNGMRDTPPWWRDYAHQGDLYACTEPGDTQEVRNAIWQIVRDLDLFTGPDSLLAQVVELVQAPLPEAIAITKALLDAGMFFAKRTGPHVDYNVQPAIDYLRT
For B2, the Km in “purified protein [6]” was 4172.12 ± 20.104 µM; in the data set “purified protein [7]”, 2833.32 ± 40.824 µM; in the data set “purified protein [8]”, 956.7 ± 12.93 µM; in the data set “purified protein [9]” it was 1476.39 ± 33.184 µM; in the data set “purified protein [10]”, 1519.25 ± 38.596 µM. Besides, the kcat/Km worked out at 44700 ± 7630 M⁻¹ s⁻¹ in the data set “purified protein [6]”; 19700 ± 2420 M⁻¹ s⁻¹ in the data set “purified protein [7]”; 54000 ± 3520 M⁻¹ s⁻¹ in “purified protein [8]”; 71800 ± 3350 M⁻¹ s⁻¹ in the data set “purified protein [9]”; 20300 ± 230 M⁻¹ s⁻¹ in “purified protein [10]”.

B3: LysB-Omega (LysB-His6) (Mycobacterium phage Omega) (protein)
chain: MSLWPEIRAMLNGEFYVPAGTIITANGTGVPDGAGPGFGADLARELERVAEGMWIWKWINYPAAVMPMRPSINTLRLALKEMIRTTPGKIVLSAYSQSAVAFAYVWRDDILNPDGELHDRLDDIVAVILYGNPVRAPGIAYGNELGGQSAPGKLNGHVTGGIAGPDCLRPEECVHPVTGRRIVLDFANAGDLYAAAPVGAEPWVKETEVGHNETLIYEAVMDFNGRDILAFAKEIAQILTMPLSQVVPLVQAIINGLSFLVQGPKAPHWTYTIGPAVDYLVRTGNELRKN
As to B3, the Km in the data set “purified protein [11]” is reported as 618.8 ± 24.98 µM; in “purified protein [12]”, 24.4 ± 3.116 µM; in “purified protein [13]”, 98.72 ± 5.292 µM; in the data set “purified protein [14]” it was 280.8 ± 3.26 µM; in the data set “purified protein [15]” it was 193.3 ± 2.258 µM. Besides, the Vmax in “purified protein [11]” is 112 µmol/min/mg; in “purified protein [12]”, 1.45 µmol/min/mg; in the data set “purified protein [13]”, 22.3 µmol/min/mg; in the data set “purified protein [14]”, 79.8 µmol/min/mg; in the data set “purified protein [15]”, 15.7 µmol/min/mg. Besides, the kcat in “purified protein [11]” was found to be 11.7 ± 0.313 s⁻¹; in “purified protein [12]”, 0.152 ± 0.0184 s⁻¹; in the data set “purified protein [13]” it was 2.35 ± 0.0785 s⁻¹; in the data set “purified protein [14]”, 8.4 ± 0.339 s⁻¹; in “purified protein [15]” it was 7.54 ± 0.165 s⁻¹. Further, the kcat/Km in “purified protein [11]” worked out at 19000 ± 733 M⁻¹ s⁻¹; in the data set “purified protein [12]”, 6230 ± 4950 M⁻¹ s⁻¹; in “purified protein [13]”, 23800 ± 783 M⁻¹ s⁻¹; in “purified protein [14]”, 40200 ± 2260 M⁻¹ s⁻¹; in the data set “purified protein [15]”, 39000 ± 6070 M⁻¹ s⁻¹.
